“Also recorded” adds a separate entry of the source. Bridges are numbered along the chain shown (N, C = ends). Where no end group is shown, it is not given here.
How the values were obtained:
[1] = target: T1, amilorid-sensitive Sodium Ion Channel (ENaC) (Homo sapiens, UniProt P37088); test: Patch-clamp whole cell, amilorid-sensitive sodium ion current in A549 cells; type: cell-based
T1 construct: Macroscopic Sodium Ion Currents were derived from human lung epithelian cells A549; endogenous in cells; host or cells: A549 human lung epithelial cells
T1 sequence (P37088 1-669): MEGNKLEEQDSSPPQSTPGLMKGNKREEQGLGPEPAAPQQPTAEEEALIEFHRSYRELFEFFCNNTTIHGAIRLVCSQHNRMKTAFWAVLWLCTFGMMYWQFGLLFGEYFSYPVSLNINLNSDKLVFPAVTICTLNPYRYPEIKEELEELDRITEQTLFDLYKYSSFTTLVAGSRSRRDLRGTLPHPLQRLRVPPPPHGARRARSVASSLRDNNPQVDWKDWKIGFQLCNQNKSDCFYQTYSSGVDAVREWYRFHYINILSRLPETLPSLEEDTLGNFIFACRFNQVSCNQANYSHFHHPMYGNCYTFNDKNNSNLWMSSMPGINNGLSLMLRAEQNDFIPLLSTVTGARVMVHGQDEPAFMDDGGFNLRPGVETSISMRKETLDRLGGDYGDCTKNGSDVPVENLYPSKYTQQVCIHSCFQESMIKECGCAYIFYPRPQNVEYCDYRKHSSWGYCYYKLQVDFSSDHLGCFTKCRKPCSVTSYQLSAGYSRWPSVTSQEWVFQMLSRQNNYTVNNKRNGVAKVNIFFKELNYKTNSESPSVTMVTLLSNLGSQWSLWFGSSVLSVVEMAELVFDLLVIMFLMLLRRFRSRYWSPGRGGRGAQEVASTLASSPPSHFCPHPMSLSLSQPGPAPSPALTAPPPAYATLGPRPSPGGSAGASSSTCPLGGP
T1 sequence (P51168 1-640 partner): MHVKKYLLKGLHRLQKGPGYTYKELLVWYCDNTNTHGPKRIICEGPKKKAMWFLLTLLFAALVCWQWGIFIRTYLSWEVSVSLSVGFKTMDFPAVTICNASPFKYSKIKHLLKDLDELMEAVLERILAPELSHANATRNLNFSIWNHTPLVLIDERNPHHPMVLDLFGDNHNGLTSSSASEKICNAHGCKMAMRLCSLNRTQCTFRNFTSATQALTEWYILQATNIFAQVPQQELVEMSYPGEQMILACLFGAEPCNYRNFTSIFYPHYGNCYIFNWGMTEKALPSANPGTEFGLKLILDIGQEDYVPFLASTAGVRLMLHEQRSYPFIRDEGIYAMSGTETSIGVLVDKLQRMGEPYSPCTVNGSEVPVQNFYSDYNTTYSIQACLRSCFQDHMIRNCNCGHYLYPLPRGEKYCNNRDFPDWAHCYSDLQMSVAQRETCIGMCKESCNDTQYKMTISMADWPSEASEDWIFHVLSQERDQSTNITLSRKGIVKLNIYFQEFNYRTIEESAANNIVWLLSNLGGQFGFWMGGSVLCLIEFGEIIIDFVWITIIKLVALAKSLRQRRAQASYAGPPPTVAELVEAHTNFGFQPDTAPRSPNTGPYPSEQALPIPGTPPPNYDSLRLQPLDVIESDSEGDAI
T1 sequence (P51170 1-649 partner): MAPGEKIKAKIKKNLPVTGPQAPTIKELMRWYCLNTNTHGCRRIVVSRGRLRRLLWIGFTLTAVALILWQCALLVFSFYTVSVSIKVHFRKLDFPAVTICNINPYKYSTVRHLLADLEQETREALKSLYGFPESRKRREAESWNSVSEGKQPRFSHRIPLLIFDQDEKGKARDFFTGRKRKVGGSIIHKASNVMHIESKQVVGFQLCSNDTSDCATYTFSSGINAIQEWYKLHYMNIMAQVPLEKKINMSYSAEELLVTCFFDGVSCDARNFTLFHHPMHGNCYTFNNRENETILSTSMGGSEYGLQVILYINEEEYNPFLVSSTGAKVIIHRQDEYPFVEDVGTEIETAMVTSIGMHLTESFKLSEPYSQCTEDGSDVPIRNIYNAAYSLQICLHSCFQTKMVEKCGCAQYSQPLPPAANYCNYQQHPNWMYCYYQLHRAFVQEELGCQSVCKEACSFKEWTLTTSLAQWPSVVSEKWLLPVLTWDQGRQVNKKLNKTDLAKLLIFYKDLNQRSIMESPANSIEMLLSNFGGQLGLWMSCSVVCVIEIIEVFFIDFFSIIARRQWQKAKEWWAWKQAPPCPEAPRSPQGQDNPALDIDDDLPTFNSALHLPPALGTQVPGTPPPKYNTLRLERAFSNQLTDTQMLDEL
Method: Macroscopic Sodium Ion Currents were derived from human lung epithelian cells A549 in the “whole cell” configuration by means of the “Patch-clamp” technique (Hamill et al, Pflugers Arch. 1981, 391(2):85-100, 1981). For the currents in the “whole cell” configuration the following bath- and electrode solutions were used:
Bath solution: 135 mM sodium methansulfonate, 10 mM NaCl, 2.7 mM KCl, 1.8 mM CaCl2, 2 mM MgCl2, 5.5 mM glucose, and 10 mM HEPES, pH 7.4.
Electrode solution: 120 mM potassium methansulfonate, 15 mM KCl, 6 mM NaCl, 1 mM Mg2ATP, 2 mM Na3ATP, 10 mM HEPES, and 0.5 mM EGTA (pH 7.2).
Cover glasses with thereon cultivated cells were transferred into a 1 ml containing trial bath, fixed onto the microscope table (Axiovert 100, 400-fold enlargement) and the cells were superfunded with the above described bath solution. Subsequent from an appropriate cell (sticking on the cover glass) the current was deduced. […] On receipt of a “Gigaohm-Seal” a defined membrane hold potential was created via a preamplifier (CV-4 Headstag, Axon Instruments) and amplifier (Axopatch 1D, Axon Instr.) and the current which thereby flows through the ion channels is measured.
That protocol was done before (control) and after addition of the cyclic proteins. The thus obtained currents were recorded and analyzed by means of the program PCLAMP 6.0. […]

[2] = target: T1, amilorid-sensitive Sodium Ion Channel (ENaC); test: Biological activity of condensed aerosol by Patch Clamp in A549 cells; type: cell-based; details: Mesh-Type nebulizer, aerosol condensed in cooling trap
Method: Since proteins and peptides occasionally may be rather unstable, it was investigated, whether the cyclic peptides of amino acid sequence SEQ ID NO:1 to SEQ ID NO:6 in dissolved preparation during conversion into an aerosol remain stable. For that the cyclic peptides were dissolved in water as described in example 4. After filling into the storage container of a nebulizer the aqueous solution of the cyclic peptides were converted into an aerosol. For that a “Mesh-Type” nebulizer was used. The biological activity of the collected aerosols was determined by means of the Patch Clamp method. Thereby macroscopic currents of A549 cells were deduced in the “whole cell” configuration of the “Patch-clamp” technique, as described under “Electrophysiological Investigations of the Amilorid-sensitive Sodium Ion Channel (ENaC)”.

Compound	biological activity (in words) ([1]; amilorid-sensitive sodium current)	EC50 (activity on cellular amilorid-sensitive sodium ion current) ([1]; whole cell patch clamp)	biological stability during transformation into an aerosol [2]
Cyclo(CGQREAPAGAAAKPWYC) (disulfide 1-17) [SEQ ID NO: 7, reference compound]	biologically inactive; also recorded: not active	no activity	–
C[C@@H]1NC(=O)CNC(=O)[C@H](CCC(=O)O)NC(=O)[C@@H]2CCCN2C(=O)[C@H]([C@@H](C)O)NC(=O)[C@H](CCC(=O)O)NC(=O)[C@H](CCCNC(=N)N)NC(=O)[C@H](CCC(N)=O)NC(=O)CNC(=O)[C@@H](N)CSSC[C@@H](C(=O)O)NC(=O)[C@H](Cc2ccc(O)cc2)NC(=O)[C@H](Cc2c[nH]c3ccccc23)NC(=O)[C@@H]2CCCN2C(=O)[C@H](CCCCN)NC(=O)[C@H](C)NC(=O)[C@H](CCC(=O)O)NC1=O [SEQ ID NO: 1]	–	–	keeps its biological, as well as its chemical stability

— patent US10711041B2, “Lyophilisate containing a cyclic peptide of formula X1-[sequence]-X2” (priority 2013, dated 2020)
